Entries after “also recorded” stand apart in the source; their conditions may differ.
B1: N323: STARS deletion mutant lacking residues from the carboxy-terminus into the conserved region (protein)
chain: MAPGEKESGEGPAKSALRKIRTATLVISLARGWQQWANENSIRQAQEPTGWLPGGTQDSPQAPKPITPPTSHQKAQSAPKSPPRLPEGHGDGQSSEKAPEVSHIKKKEVSKTVVSKTYERGGDVSHLSHRYERDAGVLEPGQPENDIDRILHSHGSPTRRRKCANLVSELTKGWRVMEQEEPTWRSDSVDTEDSGYGGEAEERPEQDGVQVAVVRIKRPLPSQVNRFTEKLNCKAQQKYSPVGNLKGRWQQWADEHIQSQKLNPFSEEFDYELAMSTRLHKGDEGYGRPKEGTKTAERAKRAEEHIYREMMDMCFIICTMARH
modifications: left off: small tags and cut ends
notes: STARS deletion mutant lacking residues from the carboxy-terminus into the conserved region
B2: N304: STARS deletion mutant lacking residues from the carboxy-terminus into the conserved region (protein)
chain: MAPGEKESGEGPAKSALRKIRTATLVISLARGWQQWANENSIRQAQEPTGWLPGGTQDSPQAPKPITPPTSHQKAQSAPKSPPRLPEGHGDGQSSEKAPEVSHIKKKEVSKTVVSKTYERGGDVSHLSHRYERDAGVLEPGQPENDIDRILHSHGSPTRRRKCANLVSELTKGWRVMEQEEPTWRSDSVDTEDSGYGGEAEERPEQDGVQVAVVRIKRPLPSQVNRFTEKLNCKAQQKYSPVGNLKGRWQQWADEHIQSQKLNPFSEEFDYELAMSTRLHKGDEGYGRPKEGTKTAERAKRAEE
modifications: left off: small tags and cut ends
notes: as for B1
B3: N233: STARS deletion mutant lacking residues from the carboxy-terminus into the conserved region (protein)
chain: MAPGEKESGEGPAKSALRKIRTATLVISLARGWQQWANENSIRQAQEPTGWLPGGTQDSPQAPKPITPPTSHQKAQSAPKSPPRLPEGHGDGQSSEKAPEVSHIKKKEVSKTVVSKTYERGGDVSHLSHRYERDAGVLEPGQPENDIDRILHSHGSPTRRRKCANLVSELTKGWRVMEQEEPTWRSDSVDTEDSGYGGEAEERPEQDGVQVAVVRIKRPLPSQVNRFTEKLNC
modifications: left off: small tags and cut ends
notes: as for B1
B4: C96: STARS deletion mutant within the conserved region (protein)
chain: HKGDEGYGRPKEGTKTAERAKRAEEHIYREMMDMCFIICTMARHRRDGKIQVTFGDLFDRYVRISDKVVGILMRARKHGLVDFEGEMLWQGRDDHV
modifications: left off: small tags and cut ends
notes: STARS deletion mutant within the conserved region
B5: N346: STARS deletion mutant lacking residues from the carboxy-terminus into the conserved region (protein)
chain: MAPGEKESGEGPAKSALRKIRTATLVISLARGWQQWANENSIRQAQEPTGWLPGGTQDSPQAPKPITPPTSHQKAQSAPKSPPRLPEGHGDGQSSEKAPEVSHIKKKEVSKTVVSKTYERGGDVSHLSHRYERDAGVLEPGQPENDIDRILHSHGSPTRRRKCANLVSELTKGWRVMEQEEPTWRSDSVDTEDSGYGGEAEERPEQDGVQVAVVRIKRPLPSQVNRFTEKLNCKAQQKYSPVGNLKGRWQQWADEHIQSQKLNPFSEEFDYELAMSTRLHKGDEGYGRPKEGTKTAERAKRAEEHIYREMMDMCFIICTMARHRRDGKIQVTFGDLFDRYVRISDK
modifications: left off: small tags and cut ends
notes: as for B1
B6: Del234-279: larger internal STARS deletion mutant within the conserved region (protein)
chain: MAPGEKESGEGPAKSALRKIRTATLVISLARGWQQWANENSIRQAQEPTGWLPGGTQDSPQAPKPITPPTSHQKAQSAPKSPPRLPEGHGDGQSSEKAPEVSHIKKKEVSKTVVSKTYERGGDVSHLSHRYERDAGVLEPGQPENDIDRILHSHGSPTRRRKCANLVSELTKGWRVMEQEEPTWRSDSVDTEDSGYGGEAEERPEQDGVQVAVVRIKRPLPSQVNRFTEKLNCHKGDEGYGRPKEGTKTAERAKRAEEHIYREMMDMCFIICTMARHRRDGKIQVTFGDLFDRYVRISDKVVGILMRARKHGLVDFEGEMLWQGRDDHV
modifications: left off: small tags and cut ends
notes: larger internal STARS deletion mutant within the conserved region
B7: N279: STARS deletion mutant lacking residues from the carboxy-terminus into the conserved region (protein)
chain: MAPGEKESGEGPAKSALRKIRTATLVISLARGWQQWANENSIRQAQEPTGWLPGGTQDSPQAPKPITPPTSHQKAQSAPKSPPRLPEGHGDGQSSEKAPEVSHIKKKEVSKTVVSKTYERGGDVSHLSHRYERDAGVLEPGQPENDIDRILHSHGSPTRRRKCANLVSELTKGWRVMEQEEPTWRSDSVDTEDSGYGGEAEERPEQDGVQVAVVRIKRPLPSQVNRFTEKLNCKAQQKYSPVGNLKGRWQQWADEHIQSQKLNPFSEEFDYELAMSTRL
modifications: left off: small tags and cut ends
notes: as for B1

Tests used:
F-actin = assay: Immunofluorescence / Phalloidin-TRITC staining of transfected COS cells; format: cell-based; settings: for stress fibers observed: STARS-transfected COS cells, 2 μM CD or 0.5 μM LB, data not shown; for association with F-actin / actin stress fibers / bundling of actin stress fibers: transfected COS cells, Myc-tagged proteins
Protocol: (§1) Transient Transfections, Reporter Assays and Immunofluorescence Microscopy. COS cells were maintained in DMEM with 10% FBS. Eighteen hours after plating, the medium was changed to serum-free medium and transfections were performed at 50% confluency using FuGENE reagent-6 (Roche Molecular Biochemicals) following manufacturer's instructions. Each transfection used 0.15 μg of plasmid DNA for the reporter assays, and 0.5-1.0 μg immunohistochemistry. Cytochalasin D 2 μM (Sigma-Aldrich), and Y-27632 75 μM (Tocris) were added directly just after transfection. Latrunculin B 0.5 μM (dissolved in 10% ethanol, Calbiochem) was added 12 hr after transfection and 10% ethanol (final concentration 0.01%) was added to control wells. Cells were harvested 36 hr after transfection and their luciferase and β-galactosidase activity were measured.
For measuring immunofluorescence, cells were rinsed with PBS and fixed in 4% paraformaldehyde for 10 min on ice. After rinsing with PBS, COS cells were incubated in 0.1% Triton X-100 in PBS for 5 min on ice. For rat neonatal cardiomyocytes, 1% Triton X-100 in PBS was used. Cells were blocked for 20 min at room temperature in 0.5% BSA in PBS for COS cells and in 1% BSA plus 3% goat serum in PBS for rat cardiomyocytes. Then, cells were incubated with first antibody diluted in 0.5% BSA in PBS for 30-60 min at room temperature or overnight at 4° C. Anti c-myc monoclonal antibody 9E10 (Santa Cruz) was used at a 1:200 dilution. Other antibodies were anti α-actinin monoclonal antibody (1:400; Sigma-Aldrich), α-tubulin antibody (1:2000; Sigma-Aldrich) and anti-vimentin antibody (1:500; Sigma-Aldrich). Secondary antibodies were anti mouse/rabbit IgG FITC or Texas red (Vector) used at a 1:200 dilution incubated with or without Phalloidin-TRITC (1:500; Sigma Aldrich).

SM22 promoter = assay: SM22-luciferase reporter assay in transiently transfected COS cells; format: cell-based; settings: for effect on SRF / SM22 promoter activation by STARS, in words (discussion): COS cells transfected with STARS
Source text: STARS Expression Plasmids. STARS expression constructs were generated using the pcDNA3.1 mammalian expression vector (Invitrogen) which was modified to contain an amino-terminal Myc-tag. Constitutively active RhoA (L63) and C3 transferase in Prk5 were generously provided by Dr. Alan Hall (University College, London, United Kingdom). The SM22-luciferase reporter 1343 bp promoter has been previously described (Li et al., 1995). The smooth muscle α actin-luciferase reporter contained the 4 kb promoter region ligated into the pBL3basic vector (Promega). The ANF reporter contained the 638 bp promoter region (a generous gift from Dr. Mona Nemer, Universite de Montreal, Montreal, Quebec, Canada). The 4× cfos reporter contained four tandem copies of the cfos CArG box with flanking sequences, as described (Chang et al., 2001). CMV-lacZ (Promega) was used as an internal control for transfection efficiency.
as §1

actin = assay: Co-immunoprecipitation of Myc-tagged proteins with actin in COS cells; format: binding; settings: anti-Myc immunoprecipitation, anti-actin Western blot
Protocol: Western Blot and Co-immunoprecipitation Assay. Immunoprecipitation and western blot analysis was performed as described previously (Lu et al., 2000). For immunoprecipitation, cells were incubated with 1 μg anti c-myc polyclonal antibody A14 (Santa Cruz). Western blots were performed with anti-actin monoclonal antibody C4 (1:100; Roche Molecular Biochemicals) or anti c-myc monoclonal antibody 9E10 (1:1000; Santa Cruse) followed by incubation with secondary antibody HRP-conjugated anti mouse-IgG (Santa Cruse, Vector). To detect signals, blots were incubated with ECL (Santa Cruz) for 1 min, and exposed to film (Eastman Kodak Co).

Molecule	co-immunoprecipitation with actin (actin)	association with F-actin / actin stress fibers (F-actin)	bundling of actin stress fibers (F-actin)	other results
C=C1[C@@H](C)[C@H]2[C@H](Cc3ccccc3)NC(=O)[C@]23[C@H](OC(C)=O)/C=C/[C@@](C)(O)C(=O)[C@@H](C)C/C=C/[C@H]3[C@@H]1O [CD, cytochalasin D, reference compound]				stress fibers observed (F-actin): only short fragments of disrupted stress fibers; increase of SM22 promoter activity by the agent itself (SM22 promoter; COS cells, 2 μM CD, without STARS): 8 fold
C[C@@H](N)[C@H]1CC[C@H](C(=O)Nc2ccncc2)CC1 [Y-27632, reference compound]				effect on SRF / SM22 promoter activation by STARS, in words (discussion) (SM22 promoter): only partially inhibits; effect on SRF / SM22 promoter activation by STARS, in words (discussion) (SM22 promoter; listed as Y27632): decreased SM22 promoter activity significantly; reduction of the stimulatory activity of STARS on the SM22 promoter (SM22 promoter; COS cells, Y-27632 75 μM): 55%
RhoA L63: constitutively active RhoA mutant, expression vector [reference compound]				activation of the SM22 promoter (SM22 promoter; COS cells, STARS and RhoA L63 together): higher levels; activation of the SM22 promoter (SM22 promoter; COS cells, STARS or RhoA (L63) expression vector alone): comparable levels
C/C1=C/C(=O)O[C@@H]2C[C@@H](CC[C@H](C)/C=C\CC1)O[C@@](O)([C@@H]1CSC(=O)N1)C2 [LB, latrunculin B, reference compound]				stress fibers observed (F-actin): only short fragments of disrupted stress fibers; effect on SRF / SM22 promoter activation by STARS, in words (discussion) (SM22 promoter): inhibit the activity of STARS; SM22-luciferase activity under LB treatment (SM22 promoter; COS cells, 0.5 μM LB, even in cells transfected with STARS): abolished
B1	did not bind actin	did not affect the association with F-actin	abolished the ability of STARS to bundle actin stress fibers	
B2	did not bind actin	did not affect the association with F-actin	abolished the ability of STARS to bundle actin stress fibers	
B3	did not bind actin	did not affect the association with F-actin	abolished the ability of STARS to bundle actin stress fibers	
B4		did not affect the association with F-actin; also recorded: just associates with actin stress fibers	abolished the ability of STARS to bundle actin stress fibers	
B5	did not bind actin	did not affect the association with F-actin	abolished the ability of STARS to bundle actin stress fibers	
B6	failed to co-immunoprecipitate	able to associate with F-actin	lost the ability to bundle actin fibers	
B7	did not bind actin	did not affect the association with F-actin	abolished the ability of STARS to bundle actin stress fibers	
